assay: soluble on expression in E. coli; label from the status in PepcDB or PDB records

Sequence | soluble on expression in E. coli
MNITPLTSAAGKGSSAQGTDKISIPNSTRMINAASIKWLNKVRSAISDHIRTSIEKGKLFELASLGSNMFGVPALSARPSTLQPVLAFEADPNHDLNLVRVYMQDSAGKLTPWDPTPNAVTTTSNPSEPDAQSDTASSSLPRRPPAGSVLSLLGIALDHAQRHSPRADRSAKGRPGREERNGARFNAKQTKPTEAEAYGDHQTPNPDLHRQKETAQRVAESINSMREQQNGMQRAEGLLRAKEALQAREAARKQLLDVLEAIQAGREDSTDKKISATEKNATGINYQ | not soluble
MNKELTFNDLPMVVAQLRDEVVGMKQMIVSLQSQNKPHKANTHIPMSVEEASAYLKMPMATLYMKLGNGSIPATKPGKRYCLYQDELDKWLETNRKNPVPLTAEEENAAILAGNKRKPKPLNW | not soluble
MNKLITVIRDFSYSVYNWCYETVIGENTRKYKMTWKVPKESLKIIVNKNADARMQRELENRTAKDEANALTSRRRVFGSYALIGTQRAEFIQFRQIKHIDITNASLDFLYNLKQLKHDNLANFYGIQLNDDLNTMTILHALVERGTLEEFCLDRDFGMDETFKSAFMRDILKGLQYLHLSPVAYHGHLHAATCLIDINWVLKIALYGVTNFVCDNFDAENITMPDRSDYTISYAQYVCFPPEHIREYDATGKLPTRFVRGSKQGDIYCVGMIFYMMIEREDPYRLIHSVERPGSGLMMEILDHNLMPFISNNETQEDTLLDKCKECWNRDPEKRPTIENLRNAIAICYADSKGNLIDQMIRMNEKYADELETLVAARSADLALAQMQTMRLLNEMLPASIAKDLKNGVIAPARSYASATVMFVQICDFIVILKRRPPKEVIGFLNDIFDQFDTVIKRHDVETTGETYMVASGVPNENEGRHVFEVAEMSLEIRAISLSYTLENDKNYKLRVRIGFHAGPIAAGVIGIKNPRYCLFGDTVNFASRMQSNCPPLQIQTSEITARMLLATHEYKLVKRGIVHVKGKGEVNCYWLNEHIHKDEEIEESGTISHPLES | not soluble
MNKLQSYFIASVLYVMTPHAFAQGTVTIYLPGEQQTLSVGPVENVVQLVTQPQLRDRLWWPGALLTDSAAKAKALKDYQHVMAQLASWEAEADDDVAATIKSVRQQLLNLNITGRLPVKLDPDFVRVDENSNPPLVGDYTLYTVQRPVTITLLGAVSGAGQLPWQAGRSVTDYLQDHPRLAGADKNNVMVITPEGETVVAPVALWNKRHVEPPPGSQLWLGFSAHVLPEKYADLNDQIVSVLTQRVPD | not soluble
MNKSHLGTADNPQEVVTAHDIGRLVDVVNVGKGFLRYVGPIHGKDGMFCGIELLEPNGKHDGTFQGVSYFIATPYHGIFAPIFRVTLDAEELPKPPPPNPSNRLSRSALPALQLRNPLTQERKPEEDVMSTSVYVSSSTKPIAIPTKQCRPPETDPMQMSMFSDMMDGSMFSNGSWSDIADSMITSNCTFTVRKGLPIDDDGDLMSVPMVQSVFNIDREALRREEQLQSSIVLGESRIGVEHLPIIEDENELETPLVETRTMPLPNDLNANFSNKNSTTTFVEPETPKVEIRENGNLDNSIETPPQQSPSGSSMVSHESDSSSKKDDTKSDKSPTKKSQKMEEKPVVKKKEEPAAPPPPPKFPVKQKAPSKHQLMMEQLKASIEAEKTKPKKEIKSRVSLLPPPAPKAPQKENKEGGEMTETPRRTITKTPLKTVNAKAKTSPTPPVERQKKERKPLYVAPPAKERVEKEKKIPSKPVVSPPTTAEKKPVVSSIPSTSSASKGPFPTSSFAGGKLQGPRKTSSSSTTTSAKKQKNPPIDEKEKLSRLQHSTHAFEATLIVMNRINEDNERKLGNISEQYEKKVSELGDLKKMLDEARKKFEEDVEQMKNSNQQVIRNHANAVESLQKTHETQIAEKNKEFERNFEEERARREAEVCAMNNRHQKVVACLDEKISEAEKQCEQLNVDKKVLQAALANDCDHRNQMLTKEISSLQTALEMKSAEMKELRQKNQNLSLQVDEIPLKELEISKWKHKSNEYKQMLDQKINGEKILVQQIEDLRRKQIHDEEEKEAMKRSFDLMQFKYENGDDPNVTSVMSAPMESRFSTPTKVQFRSRSSASGSRPISMATSNGGDQRLSTSSHHDDSMNRSTISMYTSHIRLPENHADDVIYAPDEIISSRSGSISQRLAISIENDGEPTIKSESSRIGNTSDSGIGLVM | not soluble
MNKTWWKEAVAYQIYPRSFMDSNGDGIGDLQGIIAKLDYLKDLGIDVIWICPMYKSPNDDNGYDISDYQDIMDEFGTMEDFDALLDEVHKRDMKLIIDLVINHTSDEHPWFIESRSSKDNPKRDWYIWHDGKDGAEPNNWESIFNGSAWEYDEVTGQYYLHLFSRKQPDLNWENKEVREVLYDTVNWWLDKGIDGFRVDAISHIKKEDGFKDMPNPKGLKYVPSFDKHMNVDGIQPLLEELKENTFSKYDIMTVGEANGVKIEDAELWVGEEQGKFNMVFQFEHLSLWDAEKKKDLDVVGLKKVLTKWQKGLENKGWNALYIENHDKPRIVSTWGDDKQYWRESATALGAMYFFMHGTPFIYQGQEIGMTNVQFPNIEDYDDVAIKNLYREKIAEGVSHQDMMEIIWASCRDNSRTPMHWDDEINAGFTTGTPWFGMNQNYKEINVAKQKNEENSIFNFYKKMIALKKEHDVLNYGTYDLLLEDDPQIYAYTRTLNDEKIVVISNISKEEAVYNEDLFALERKRLLLNNYEVAEHEQLTTITLKPYETRVYRIS | not soluble
MNLMLCCTPLQVLIARKIIELHPNEQFFGVMFGGVWDKKRTLYASKLAEVCSDSMNIDTGKDLKGFDFLKLMRQLKNKITHKGFDKVFLANLNSLWLQTYLSHVSFKELYTFDDGSDNIFPHPNLLREPGTFKYKLIKAFIGDKYSVNKLFKKIKKHYTVYPNYKNIVSNIEPISLWDNQIDCEIDGEVSFFIGQPLLNTKEENISLIKKLKDQIPFDYYFPHPAEDYRVDGVNYVESELIFEDYVFKHLSNKIIIYTFFSSVAFNLLSHPNVEIRFIRTSIPRWQFCYDSFPDLGLTIYKEILEHHHHHH | soluble
MNLRGILPFAHDTLRKVVRSGDYVVDATCGNGHDTLLLAELVGINGHVLGFDIQQLAIDATNTRLENAGVSSQVELVCASHARIPEYTSKPVRAAIFNLGYLPGGDKEITTTADSTLESIGHLMELLEVGGVIILVIYHGHPAGKQEKDAVMTFCEAIPQQDFHVLSYNFINQKNDAPFVIIIEKRKPRQSLEHHHHHH | soluble
MNLRKPSAWTALALSISTGPAAAGTVTSATLAASTLSPDCLEYKVVGICYWLLCTPFGCKVKTSTKVRHYVPDAVVSSYSNTGENPWVEVSSLSSPTSFAQDGGDGTTSHNNEDNLAKFKNTDVIGHPGGATFSKFASASGYACQGAATPYMPYLLSTLDTIAWRYGVPESAYPEALIPGQREVGGLTSGDMWGSLYPRSGFIHQADDYKAAAVIAQRAGDVVTRRGQIHIYQPLLAKPQSGYWPAGELIETDASTGKWQELTPTLSQSCAVFPNSQPRVQATDGGYAWALWRPYSCCKRQGQTFLGSTDFQLEHHHHHH | not soluble
MNLTVSHLDKLRLPLLHKIYKENYPSGKPKGKEEIIVIEGDKKILGAMRIKTYEECHFLTGMMIIKERRGESLGSQLLFKLNEFLSLEHCYCFCEPQLSEFYLKNDFIHIDKKNIPHVLKSKHDRYTNTGKELDILLYKKTNN | not soluble
MNLVKLLANNWQPIAIIALVGTGLAVSHHQGYKSAFAKQQAVIDKMERDKAQALLLSAQNYARELELARAEAKKYEVKAHAVGMALAKKQAEVSRLKTERDLCKIPFPPDSRNPNTGFRLFSPQIPPNFTQIPP | not soluble
MNMNQTTSPALSQVETAIRVPAGNFAKYNYYSVFDIVRQTRKQFINANMSWPGSRGGKTWDLAMGQAQYIRCMFRENQLTRRVRGTLQQTPDNGTNLSSSAVGGIQGQAERRPDLATLMVVNDAINQQIPTLLPYHFPHDQVELSLLNTDVSLEDIISESSIDWPWFLSNSLTGDNSNYAMELASRLSPEQQTLPTEPDNSTATDLTSFYQTNLGLKTADYTPFEALNTFARQLAITVPPGGTVDCGYSACQPAVLEHHHHHH | not soluble
MNMTKNTMGTKLPRKLEQKMAVVGEQIKLARLRRNLSVAQVAERATCSPLTVSRIEKGAPTVAIGIYLRVLYALQLDDDILWLAKEDKLGKTLQDLSLKTRERASKKE | not soluble
MNNKEKGDFGEKVAVNYLLSKGAKILEKNYRLKIGEIDIIAKMEDEIIFVEVKSRSNIKFGYPCESVSFKKRKKIIGVASYYIIKNNLNNTPIRFDVIEVYLLEKRINHIMNAF | not soluble
